According to patent publication US20260201022A1:

Molecular target: BauA on the surface of the strains of the A. baumannii diversity set (100 strains, MRSN)
Assay: native ELISA on the diversity set of 100 A. baumannii strains

B1: αBauA mouse monoclonal antibody against BauA of Acinetobacter baumannii (hybridoma subclone 12C1) (antibody, V domains shown)
VH: EVQLQESGADLVRPGSSVKISCKASGYAFSNYWMHWMKQRPGQGLEWIGQIYPGDGDTNYNGKFKGKATLTADKSSSSAYMQLSSLISEDSAVYFCARGDFYYGSPFAYWGQGTLVTVSA
VL: DIVMTQAAPSVPVTPGESVSISCRSSKSLLHSNGNTYLYWFLQRPGQSPQLLIYRMSNLASGVPDRFSGSGSGTAFTLRISRVEAEDVGVYYCMQHLEYPLTFGAGTKLELK
percent of strains recognized: > 68%
